What was measured:
Assay in all cases: cell-based or functional assay
[1] = target: human Nav1.7 sodium channel alpha subunit (human) (UniProt Q15858)
[2] = target: Nav1.2 sodium channel (rBIIa) (UniProt P04775)
[3] = target: Nav1.2 sodium channel (rBIIa), P04775

human Nav1.7 sodium channel alpha subunit (human), sequence (Q15858 whole entry): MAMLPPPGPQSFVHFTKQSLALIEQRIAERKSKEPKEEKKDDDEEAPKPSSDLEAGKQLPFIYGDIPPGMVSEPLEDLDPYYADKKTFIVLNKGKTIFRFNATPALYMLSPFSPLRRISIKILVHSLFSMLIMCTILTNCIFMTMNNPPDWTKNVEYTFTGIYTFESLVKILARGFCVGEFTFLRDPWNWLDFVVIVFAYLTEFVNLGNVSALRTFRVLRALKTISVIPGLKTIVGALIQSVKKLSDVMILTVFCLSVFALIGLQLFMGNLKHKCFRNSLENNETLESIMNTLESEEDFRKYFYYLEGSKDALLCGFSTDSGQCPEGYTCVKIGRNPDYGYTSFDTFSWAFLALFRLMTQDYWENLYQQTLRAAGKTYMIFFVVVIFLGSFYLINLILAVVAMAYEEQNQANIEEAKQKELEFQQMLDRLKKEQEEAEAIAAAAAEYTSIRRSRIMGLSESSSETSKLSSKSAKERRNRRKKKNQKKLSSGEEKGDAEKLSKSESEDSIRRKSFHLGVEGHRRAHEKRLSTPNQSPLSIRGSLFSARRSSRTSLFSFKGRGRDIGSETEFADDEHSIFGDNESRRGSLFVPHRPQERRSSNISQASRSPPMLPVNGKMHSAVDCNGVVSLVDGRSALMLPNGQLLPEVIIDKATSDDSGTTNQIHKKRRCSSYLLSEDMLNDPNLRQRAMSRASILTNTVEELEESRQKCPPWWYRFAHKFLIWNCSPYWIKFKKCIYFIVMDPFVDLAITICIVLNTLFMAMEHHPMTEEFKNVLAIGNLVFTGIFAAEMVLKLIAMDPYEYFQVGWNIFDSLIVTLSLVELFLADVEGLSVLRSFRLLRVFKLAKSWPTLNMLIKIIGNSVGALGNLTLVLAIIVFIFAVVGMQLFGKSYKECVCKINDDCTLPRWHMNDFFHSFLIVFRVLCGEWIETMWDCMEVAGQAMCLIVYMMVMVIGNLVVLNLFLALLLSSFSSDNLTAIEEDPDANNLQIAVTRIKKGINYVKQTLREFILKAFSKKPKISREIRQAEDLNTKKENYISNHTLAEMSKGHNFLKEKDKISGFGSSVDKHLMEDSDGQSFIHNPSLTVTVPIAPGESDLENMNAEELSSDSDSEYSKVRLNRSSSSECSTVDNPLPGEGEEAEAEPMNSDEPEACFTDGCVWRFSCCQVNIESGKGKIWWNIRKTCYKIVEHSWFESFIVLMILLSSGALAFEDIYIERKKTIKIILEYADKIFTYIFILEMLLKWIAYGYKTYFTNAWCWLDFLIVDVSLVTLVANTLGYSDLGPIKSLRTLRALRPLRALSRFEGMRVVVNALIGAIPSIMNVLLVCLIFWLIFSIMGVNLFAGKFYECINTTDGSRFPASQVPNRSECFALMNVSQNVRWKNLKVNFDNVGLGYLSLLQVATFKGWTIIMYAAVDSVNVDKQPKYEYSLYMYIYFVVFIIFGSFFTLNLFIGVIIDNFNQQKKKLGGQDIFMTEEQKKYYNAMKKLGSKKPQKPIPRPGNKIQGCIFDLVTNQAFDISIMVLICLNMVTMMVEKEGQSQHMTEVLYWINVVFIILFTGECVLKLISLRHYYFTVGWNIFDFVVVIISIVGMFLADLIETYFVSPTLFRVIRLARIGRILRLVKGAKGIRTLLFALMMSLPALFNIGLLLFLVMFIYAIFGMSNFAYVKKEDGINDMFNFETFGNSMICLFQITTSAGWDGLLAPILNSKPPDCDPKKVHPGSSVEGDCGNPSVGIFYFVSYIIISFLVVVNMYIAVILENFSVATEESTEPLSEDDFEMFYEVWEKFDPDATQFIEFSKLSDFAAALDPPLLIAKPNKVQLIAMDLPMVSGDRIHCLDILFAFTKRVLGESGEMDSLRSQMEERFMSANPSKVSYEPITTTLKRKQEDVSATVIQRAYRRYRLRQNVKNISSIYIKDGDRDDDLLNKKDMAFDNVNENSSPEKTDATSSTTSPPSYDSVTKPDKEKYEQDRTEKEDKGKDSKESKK

Molecule | IC50 Nav1.7 [1] [nM] | IC50 Nav1.2 [2] [nM] | IC50 Nav1.2 [3] [nM]
GrTx I (peptide) | 1010 | 2690 | –
Phrixotoxin I (peptide) | – | 5000 | –
JzTx XII (peptide) | – | 73900 | –
GsAF I (peptide) | 249 | 255 | –
GsMTx II/PaTX II (peptide) | 260 | 2700 | –
VsTx II (peptide) | 9260 | 42400 | –
JzTx V (peptide) | 14 | 157 | –
GsAF II (peptide) | 70 | 410 | –
YCQKWMWTCDSERKCCEGMVCRLWCKKKLW (modifications not checked) [peptide of SEQ ID NO: 2] | – | – | 8
